B1: PHGDH (protein)
chain: AFANLRKVLISDSLDPCCRKILQDGGLQVVEKQNLSKEELIAELQDCEGLIVRSATKVTADVINAAEKLQVVGRAGTGVDNVDLEAATRKGILVMNTPNGNSLSAAELTCGMIMCLARQIPQATASMKDGKWERKKFMGTELNGKTLGILGLGRIGREVATRMQSFGMKTIGYDPIISPEVSASFGVQQLPLEEIWPLCDFITVHTPLLPSTTGLLNDNTFAQCKKGVRVVNCARGGIVDEGALLRALQSGQCAGAALDVFTEEPPRDRALVDHENVISCPHLGASTKEAQSRCGEEIAVQFVDMVKGKSLTGVVNAQALTSAFSPHTKPWIGLAEALGTLMRAWAGSPKGTIQVITQGTSLKNAGNCLSPAVIVGLLKEASKQADVNLVNAKLLVKEAGLNVTTSHSPAAPGEQGFGECLLAVALAGAPYQAVGLVQGTTPVLQGLNGAVFRPEVPLRRDLPLLLFRTQTSDPAMLPTMIGLLAEAGVRLLSYQTSLVSDGETWHVMGISSLLPSLEAWKQHVTEAFQFHF
B2: SERPINB3 (protein)
chain: MNSLSEANTKFMFDLFQQFRKSKENNIFYSPISITSALGMVLLGAKDNTAQQIKKVLHFDQVTENTTGKAATYHVDRSGNVHHQFQKLLTEFNKSTDAYELKIANKLFGEKTYLFLQEYLDAIKKFYQTSVESVDFANAPEESRKKINSWVESQTNEKIKNLIPEGNIGSNTTLVLVNAIYFKGQWEKKFNKEDTKEEKFWPNKNTYKSIQMMRQYTSFHFASLEDVQAKVLEIPYKGKDLSMIVLLPNEIDGLQKLEEKLTAEKLMEWTSLQNMRETRVDLHLPRFKVEESYDLKDTLRTMGMVDIFNGDADLSGMTGSRGLVLSGVLHKAFVEVTEEGAEAAAATAVVGFGSSPTSTNEEFHCNHPFLFFIRQNKTNSILFYGRFSSP
B3: CALML5 (protein)
chain: AGELTPEEEAQYKKAFSAVDTDGNGTINAQELGAALKATGKNLSEAQLRKLISEVDSDGDGEISFQEFLTAAKKARAGLEDLQVAFRAFDQDGDGHITVDELRRAMAGLGQPLPQEELDAMIREADVDQDGRVNYEEFARMLAQE
B4: YTHDF2 (protein)
chain: SASSLLEQRPKGQGNKVQNGSVHQKDGLNDDDFEPYLSPQARPNNAYTAMSDSYLPSYYSPSIGFSYSLGEAAWSTGGDTAMPYLTSYGQLSNGEPHFLPDAMFGQPGALGSTPFLGQHGFNFFPSGIDFSAWGNNSSQGQSTQSSGYSSNYAYAPSSLGGAMIDGQSAFANETLNKAPGMNTIDQGMAALKLGSTEVASNVPKVVGSAVGSGSITSNIVASNSLPPATIAPPKPASWADIASKPAKQQPKLKTKNGIAGSSLPPPPIKHNMDIGTWDNKGPVAKAPSQALVQNIGQPTQGSPQPVGQQANNSPPVAQASVGQQTQPLPPPPPQPAQLSVQQQAAQPTRWVAPRNRGSGFGHNGVDGNGVGQSQAGSGSTPSEPHPVLEKLRSINNYNPKDFDWNLKHGRVFIIKSYSEDDIHRSIKYNIWCSTEHGNKRLDAAYRSMNGKGPVYLLFSVNGSGHFCGVAEMKSAVDYNTCAGVWSQDKWKGRFDVRWIFVKDVPNSQLRHIRLENNENKPVTNSRDTQEVPLEKAKQVLKIIASYKHTTSIFDDFSHYEKRQEEEESVKKERQGRGK
B5: TELO2 (protein)
chain: MEPAPSEVRLAVREAIHALSSSEDGGHIFCTLESLKRYLGEMEPPALPREKEEFASAHFSPVLRCLASRLSPAWLELLPHGRLEELWASFFLEGPADQAFLVLMETIEGAAGPSFRLMKMARLLARFLREGRLAVLMEAQCRQQTQPGFILLRETLLGKVVALPDHLGNRLQQENLAEFFPQNYFRLLGEEVVRVLQAVVDSLQGGLDSSVSFVSQVLGKACVHGRQQEILGVLVPRLAALTQGSYLHQRVCWRLVEQVPDRAMEAVLTGLVEAALGPEVLSRLLGNLVVKNKKAQFVMTQKLLFLQSRLTTPMLQSLLGHLAMDSQRRPLLLQVLKELLETWGSSSAIRHTPLPQQRHVSKAVLICLAQLGEPELRDSRDELLASMMAGVKCRLDSSLPPVRRLGMIVAEVVSARIHPEGPPLKFQYEEDELSLELLALASPQPAGDGASEAGTSLVPATAEPPAETPAEIVDGGVPQAQLAGSDSDLDSDDEFVPYDMSGDRELKSSKAPAYVRDCVEALTTSEDIERWEAALRALEGLVYRSPTATREVSVELAKVLLHLEEKTCVVGFAGLRQRALVAVTVTDPAPVADYLTSQFYALNYSLRQRMDILDVLTLAAQELSRPGCLGRTPQPGSPSPNTPCLPEAAVSQPGSAVASDWRVVVEERIRSKTQRLSKGGPRQGPAGSPSRFNSVAGHFFFPLLQRFDRPLVTFDLLGEDQLVLGRLAHTLGALMCLAVNTTVAVAMGKALLEFVWALRFHIDAYVRQGLLSAVSSVLLSLPAARLLEDLMDELLEARSWLADVAEKDPDEDCRTLALRALLLLQRLKNRLLPPASP
B6: SYNPO (protein, UniProt Q8N3V7 1-929, looked up)
Synaptopodin: MLGPHLPPPPLAPSEGRPTPCAFQIPDGSYRCLALEAEESSGEEGLQGEVGPTDLEEDEGVSRSGDDSACRVTQGTPQLPKALGIQPPSCSREEQGASQHDDRASQDWDVVKAGQMMTASPSPGPGPRVAQKPALGRSTSLTEKDLKEAKARSQQIAAQLTTPPSSNSRGVQLFNRRRQRVNEFTLESHGQRGQKPSQESLRVLPSSLPGHAPGLSLSSTSLPEPGPPRHPSPQSPDRGVPGHSMEGYSEEASLLRHLEKVASEEEEVPLVVYLKENAALLTANGLHLSQNREAQQSSPAPPPAEVHSPAADVNQNLASPSATLTTPTSNSSHNPPATDVNQNPPATVVPQSLPLSSIQQNSSEAQLPSNGTGPASKPSTLCADGQPQAPAEEVRCSTLLIDKVSTPATTTSTFSREATLIPSSRPPASDFMSSSLLIDIQPNTLVVSADQEMSGRAAATTPTKVYSEVHFTLAKPPSVVNRTARPFGIQAPGGTSQMERSPMLERRHFGEKAPAPQPPSLPDRSPRPQRHIMSRSPMVERRMMGQRSPASERRPLGNFTAPPTYTETLSTAPLASWVRSPPSYSVLYPSSDPKSSHLKGQAVPASKTGILEESMARRGSRKSMFTFVEKPKVTPNPDLLDLVQTADEKRRQRDQGEVGVEEEPFALGAEASNFQQEPAPRDRASPAAAEEVVPEWASCLKSPRIQAKPKPKPNQNLSEASGKGAELYARRQSRMEKYVIESSSHTPELARCPSPTMSLPSSWKYPTNAPGAFRVASRSPARTPPASLYHGYLPENGVLRPEPTKQPPYQLRPSLFVLSPIKEPAKVSPRAASPAKPSSLDLVPNLPKGALPPSPALPRPSRSSPGLYTSPGQDSLQPTAVSPPYGGDISPVSPSRAWSPRAKQAPRPSFSTRNAGIEAQVWKPSFCFK
B7: S100A7 (protein)
chain: SNTQAERSIIGMIDMFHKYTRRDDKIEKPSLLTMMKENFPNFLSACDKKGTNYLADVFEKKDKNEDKKIDFSEFLSLLGDIATDYHKQSHGAAPCSGGSQ
B8: HNRNPM (protein)
chain: AAGVEAAAEVAATEIKMEEESGAPGVPSGNGAPGPKGEGERPAQNEKRKEKNIKRGGNRFEPYANPTKRYRAFITNIPFDVKWQSLKDLVKEKVGEVTYVELLMDAEGKSRGCAVVEFKMEESMKKAAEVLNKHSLSGRPLKVKEDPDGEHARRAMQKVMATTGGMGMGPGGPGMITIPPSILNNPNIPNEIIHALQAGRLGSTVFVANLDYKVGWKKLKEVFSMAGVVVRADILEDKDGKSRGIGTVTFEQSIEAVQAISMFNGQLLFDRPMHVKMDERALPKGDFFPPERPQQLPHGLGGIGMGLGPGGQPIDANHLNKGIGMGNIGPAGMGMEGIGFGINKMGGMEGPFGGGMENMGRFGSGMNMGRINEILSNALKRGEIIAKQGGGGGGGSVPGIERMGPGIDRLGGAGMERMGAGLGHGMDRVGSEIERMGLVMDRMGSVERMGSGIERMGPLGLDHMASSIERMGQTMERIGSGVERMGAGMGFGLERMAAPIDRVGQTIERMGSGVERMGPAIERMGLSMERMVPAGMGAGLERMGPVMDRMATGLERMGANNLERMGLERMGANSLERMGLERMGANSLERMGPAMGPALGAGIERMGLAMGGGGGASFDRAIEMERGNFGGSFAGSFGGAGGHAPGVARKACQIFVRNLPFDFTWKMLKDKFNECGHVLYADIKMENGKSKGCGVVKFESPEVAERACRMMNGMKLSGREIDVRIDRNA

Biological target: T1, B3GNT2 (Homo sapiens, UniProt Q9NY97)
T1 construct: The respective ORFs of candidate genes [CD274 (NM_014143), MCL1 (NM_021960), JUNB (NM_002229), and B3GNT2 (NM_006577)] were synthesized; expressed in transfected cells; host or cells: A375 melanoma cells (lentiviral ORF overexpression)
T1 sequence (Q9NY97 1-397): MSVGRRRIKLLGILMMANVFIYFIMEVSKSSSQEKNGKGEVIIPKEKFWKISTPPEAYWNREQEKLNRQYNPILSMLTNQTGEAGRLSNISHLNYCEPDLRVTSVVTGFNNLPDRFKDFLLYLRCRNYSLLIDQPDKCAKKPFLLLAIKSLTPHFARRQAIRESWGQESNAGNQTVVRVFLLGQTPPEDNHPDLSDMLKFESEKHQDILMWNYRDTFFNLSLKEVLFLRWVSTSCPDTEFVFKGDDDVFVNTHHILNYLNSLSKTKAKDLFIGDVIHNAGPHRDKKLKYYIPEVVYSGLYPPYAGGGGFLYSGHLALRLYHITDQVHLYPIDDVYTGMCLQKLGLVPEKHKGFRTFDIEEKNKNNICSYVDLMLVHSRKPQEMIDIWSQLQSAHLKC
Assay: Co-IP of FLAG-tagged B3GNT2 followed by mass spectrometry
Assay type: cell-based
Parameters: C-term IgG / C-term flag: unit not given here
Summary of the method: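 Co-purifying proteins were identified by fractionated nano-LC–MS/MS on an Orbitrap Elite, run data-dependent. Beforehand, lysates in 1% Triton X-100/HEPES buffer were incubated overnight at 4° C with anti-FLAG or […] and pulled down on Protein A/G magnetic beads for 4 h. Duplicate biological replicates.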

[1] = Co-IP followed by mass spectrometry of B3GNT2, C-term tag, FLAG pull-down
[2] = Co-IP followed by mass spectrometry of B3GNT2, C-term tag, IgG pull-down
[3] = Co-IP followed by mass spectrometry of B3GNT2, N-term tag, FLAG pull-down
[4] = Co-IP followed by mass spectrometry of B3GNT2, N-term tag, IgG pull-down

Molecule | C-term flag (Co-IP with FLAG antibody, C-terminally FLAG-tagged B3GNT2, mass spectrometry count, unit not given) | N-term FLAG (Co-IP with FLAG antibody, N-terminally FLAG-tagged B3GNT2, mass spectrometry count, unit not given) | C-term IgG (Co-IP with IgG control antibody, C-terminally FLAG-tagged B3GNT2, mass spectrometry count, unit not given) | N-term IgG (Co-IP with IgG control antibody, N-terminally FLAG-tagged B3GNT2, mass spectrometry count, unit not given) | C-term flag [1] | C-term IgG [2] | N-term FLAG [3] | N-term IgG [4]
B1 | 7 | 29 | 0 | 0 |  |  |  | 
B2 |  |  |  |  | 9 | 2 | 10 | 3
B3 |  |  |  |  | 4 | 0 | 0 | 0
B4 |  |  |  |  | 4 | 2 | 5 | 4
B5 |  |  |  |  | 3 | 0 | 2 | 0
B6 |  |  |  |  | 7 | 4 | 4 | 4
B7 |  |  |  |  | 5 | 3 | 3 | 2
B8 |  |  |  |  | 8 | 5 | 6 | 5

From patent publication US20240261333A1, “NOVEL TARGETS FOR ENHANCING ANTI-TUMOR IMMUNITY” (THE BROAD INSTITUTE, INC., priority 2021, published 2024)
